Test results reported in article PMC4075986.

Target: chicken pectoral skeletal muscle actin (F-actin) (chicken) (UniProt P68139)
Experiment: co-sedimentation

Ka: 1.7e+06 M⁻¹
Substance: rat tropomyosin Tm5a (natural protein)
